# Measured values reported in article PMC5343488, “Epilepsy and intellectual disability linked protein Shrm4 interaction with GABABRs shapes inhibitory neurotransmission” (Nature Communications, 2017).
# T1: GST-PDZ (Shrm4-PDZ domain, aa 1–91) (human, UniProt Q9ULL8 1-91)
# T1 construct: Shrm4 (Shroom4), encoded by KIAA1202, PDZ domain, aa 1-91; in pGEX-4T-1, which should put GST at the N-terminus; source: E. coli BL21, purified using standard procedures
# T1 sequence (looked up): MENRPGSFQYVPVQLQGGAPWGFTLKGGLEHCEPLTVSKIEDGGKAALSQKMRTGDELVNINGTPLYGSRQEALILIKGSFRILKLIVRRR
# B1: Tat-859–870 peptide (peptide)
# peptide: YGRKKRRQRRRITRGEWQSET
# notes: stretch of the GABAB1 C-tail named 859–870; also called Tat-peptide; Tat-859–870 (active) peptide; source: synthetic peptide (bought: Primm, Italy, and China Peptide, China)
# Molecular target: T1, GST-PDZ (Shrm4-PDZ domain, aa 1–91)
# Experiment: pull-down; competition: synthetic Tat-859–870 peptide added to the HEK293 lysate before the pull-down of GABAB1a by purified GST-PDZ; 10 μM or different concentrations
# Settings: both partners purified
binder,measurement,value
B1,binding result,binds
